Data taken from patent US7378397B2 (The Provost, Fellows and Scholars of the College of the …, priority 2000, dated 2008).

Columns and labels:
Assay type in all cases: biochemical, porcine
TRH-DE [1] = biological target: T1, TRH-DE (Sus scrofa, UniProt A0A287AP33); assay: HPLC assay of peptide hydrolysis by TRH-DE (Glp production)
T1 construct: The inventor purified TRH-DE from porcine brain according to purification procedures previously published by Dr. K. Bauer; from tissue; host or cells: porcine brain (TRH-DE); bovine kidney (DPP-IV, gift from Dr. C. H. Williams)
In short: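 Porcine brain TRH-DE incubated with 1 mM peptide in 20 mM potassium phosphate, pH 7.5, 37 °C: screen with 0.8 μg enzyme for 18 h; rate microassays with 0.8-3.2 μg enzyme for 5 min to 18 h, in triplicate. Reactions stopped with TFA; Glp quantified by C-18 reverse-phase HPLC, UV 206 nm.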

TRH-DE [2] = biological target: T1, TRH-DE; assay: discontinuous fluorometric TRH-DE assay with TRHAMC as substrate; conditions: measured indirectly, peptide treated as competitive inhibitor of TRHAMC hydrolysis; non-linear regression; mean±S.D.
Protocol: (§1) The inventor purified TRH-DE from porcine brain according to purification procedures previously published by Dr. K. Bauer, (Max-Planck-Institut, Hannover, Germany) (1). TRH-DE was purified almost 20,000 fold. […] Dipeptidyl peptidase IV (DPP-IV) (EC 3.4.14.5), purified from bovine kidney (7.7 mg ml^−1, specific activity of 17.5 U mg^−1 with Gly-ProAMC as substrate), was obtained as a gilt from Dr. C. H. Williams (Queen's University Belfast, U.K). (DPP-IV was used as the coupling enzyme used in the fluorometric assays).
(§2) One unit (U) of enzyme activity was defined as that amount catalysing the formation of one μmol of product in one minute under the standard conditions employed. […]
(§3) Determination of inhibitor constants for selected TRH-DE substrates—The HPLC assay lacked sufficient sensitivity for determining kinetic constants. […] This assay employs TRHAMC as the substrate and depends on the measurement of the fluorescence of 7-amino-4 methyl coumarin (AMC) produced as follows:
We have shown that the amount of AMC formed under these conditions is a quantitative measure of TRHAMC cleavage (23). Initial rates for the hydrolysis of TRHAMC by TRH-DE were determined in triplicate at five different substrate concentrations both in the absence and presence of at least three concentrations of peptide. […]

[3] = substrate: Cc1cc(=O)oc2cc(NC(=O)[C@@H]3CCCN3C(=O)[C@H](Cc3c[nH]cn3)NC(=O)[C@@H]3CCC(=O)N3)ccc12; assay: as above; conditions: other: Michaelis constant of TRHAMC measured directly, discontinuous assay; pH 7.5; 37.0 °C
Protocol: as §1
(§4) One unit (U) of enzyme activity was defined as that amount catalysing the formation of one μmol of product in one minute under the standard conditions employed. All incubations in the assays described below were carried out in 20 mM potassium phosphate buffer, pH 7.5, at 37° C.
as §3
(§5) We have shown that the amount of AMC formed under these conditions is a quantitative measure of TRHAMC cleavage (23). Initial rates for the hydrolysis of TRHAMC by TRH-DE were determined in triplicate at five different substrate concentrations both in the absence and presence of at least three concentrations of peptide. Ki values were obtained by non-linear regression analysis of the data collected. Determined in this way (i.e. by treating the peptide substrates as inhibitors of TRHAMC hydrolysis), these Ki values correspond to the Michaelis constants for those library peptides hydrolysed by TRH-DE (32).

[4] = substrate: NC(=O)[C@@H]1CCCN1C(=O)[C@H](Cc1ccc(O)cc1)NC(=O)[C@@H]1CCC(=O)N1; assay: as above; conditions: other: measured indirectly, peptide treated as competitive inhibitor of TRHAMC hydrolysis; non-linear regression; mean±S.D.; pH 7.5; 37.0 °C
Protocol: as §1, §4, §3, §5

[5] = substrate: NC(=O)[C@@H]1CCCN1C(=O)[C@H](Cc1ccccc1)NC(=O)[C@@H]1CCC(=O)N1; assay: as above; conditions: other: measured indirectly, peptide treated as competitive inhibitor of TRHAMC hydrolysis; non-linear regression; mean±S.D.; pH 7.5; 37.0 °C
Protocol: as §1, §4, §3, §5

[6] = substrate: Cc1cc(=O)oc2cc(NC(=O)[C@@H]3CCCN3C(=O)[C@H](Cc3c[nH]cn3)NC(=O)[C@@H]3CCC(=O)N3)ccc12; assay: continuous coupled fluorometric TRH-DE assay (TRHAMC substrate, DPP-IV coupling enzyme); conditions: other: Michaelis constant of TRHAMC, non-linear regression, pH 7.5, 37.0 °C
Protocol: as §1, §2
The reaction was monitored continuously by measuring the increase in AMC fluorescence. A linear progress curve with no discernible lag period was observed when the reaction was monitored over a period of 10 minutes. […]
In a preliminary experiment, the peptides were screened for their ability to inhibit TRH-DE activity. The initial rate of TRHAMC hydrolysis by TRH-DE was measured by incubating 5 μM TRHAMC with 1.23 μg DPP-IV and 0.32 μg TRH-DE, both in the absence and presence of each library peptide (1 mM final concentration) under standard assay conditions (23). […]
Fluorescence measurements were made using a Perkin Elmer LS 50B Luminescence Spectrometer fitted with a thernostated cell holder. […]

Molecule | Vmax (TRH-DE [1]; estimated from HPLC rates of hydrolysis using Vmax=vo{(Km+[S])/[S]}) | Rate of hydrolysis (TRH-DE [1]; peptide 1 mM, 37° C., Glp production by HPLC, mean±S.D.) | Km (TRH-DE [2]) | Km [3] | Vmax [3] | Vmax/Km [3] | Km [4] | Vmax [4] | Vmax/Km [4] | Km [5] | Vmax [5] | Vmax/Km [5] | Km [6]
Glp-Thi-ProNH2 | 2.19 ± 0.16 (6) U mg^−1 | 2.12 ± 0.16 (6) U mg^−1 | 34 ± 6 µM |  |  |  |  |  |  |  |  |  | 
TRH-DE (Sus scrofa) (protein, The inventor purified TRH-DE from porcine brain according to purification procedures previously published by Dr. K. Bauer; from tissue; host or cells: porcine brain (TRH-DE); bovine kidney (DPP-IV, gift from Dr. C. H. Williams)) MALDGERGEQEEEKKKKKKKKKRKKKKEEEGAKKSSSPFVATMGENDAALRAGGRGLSDPWADSVGVRPRTTERHITVHKRLVLAFAVSIVALLAVTMLAVLLSLRFDECGASIPPGADGGPAGFPARGGNESLPGSSRRDHHAGGDSSQPGAGREDTPETPSAQPPSEEEQEQWQPWTQLRLSGHLKPLHYNLMLTAFMENFTFSGEVNVEIACRNATRYVVLHASRVAVEKVQVAEDRVAGAVPVAGFFLYPQTQVLVVVLNRTLDAQRNYNLKIIYNALIENELLGFFRSSYVLHGERRFLGVTQFSPTHARKAFPCFDEPIYKATFKISIKHQATYLSLSNMPVETSVFEEDGWVTDHFSQTPLMSTYYLAWAICNFTYRETTTKSGVVVRLYARPDAIRRGSGDYALHITKRLIEFYEDYFKVPYSLPKLDLLAVPKHPYAAMENWGLSIFVEQRILLDPSVSSISYLLDVTMVIVHEICHQWFGDLVTPVWWEDVWLKEGFAHYFEFVGTDYLYPGWNMEKQRFLTDVLHEVMLLDGLASSHPVSQEVLRATDIDRVFDWIAYKKGAALIRMLANFMGHSVFQRGLQDYLTIHKYGNAARNDLWNTLSEALKRNGKYVNIQEVMDQWTLQMGYPVITIFGNTTAENRIIITQQHFIYDISAKAKPHELQNSSYLWQIPLTIVVGNRSHVSSEAIIWVSNKTEHHRITSLNKGSWLLGNINQTGYFRVNYDLRNWRLLIDQLIRNHEVLSVSNRAGLIDDAFSLARAGYLPQNIPLEIIRYLSEEKDFLPWHAASRALYPLDKLLDRMEKYNVFNEYILKQVATTYIKLGWPKNNFNGSLVQASYQHEELRREVIMLACSFGNKHCHQQASTLISDWISSNRNRIPLNVRDIVYCTGVSLLDEDVWEFIWMKFHSTTAISEKKILLEALTCSDDRNLLNRLLNLSLNSEVVLDQDAIDVIIHVARNPHGRDLAWKFFRDKWKILNTRYGEALFMNSKLISGVTEFLNTEGELKELKNFMKSYDGVAAASFSRAVETVEANVRWKMLYQDELFQWLGKALRH |  |  |  | 3.1 ± 0.5 µM | 0.11 µmol/min/mg | 40000 µL/min/mg | 15 ± 3 (4) μM | 0.67 µmol/min/mg | 50000 µL/min/mg | 55 ± 8 (3) μM | 1.64 µmol/min/mg | 30000 µL/min/mg | 3.5 ± 0.4 µM
